Assay results reported in US5968526A, “T cell epitopes of the major allergens from Dermatophagoides (house dust mite)” (Immulogic Pharamaceutical Corporation, priority 1995, dated 1999).

Legend:
human IgE = experiment: direct binding ELISA of IgE to mite allergen proteins and peptides; conditions: for IgE binding (ELISA), modified peptides: plasma of 19 mite-allergic patients and pool of 18, Example XV; for IgE binding (ELISA): pooled human plasma, 20 patients, FIGS. 19-21
Method: The coating antigens were removed and the wells are blocked with 0.5% gelatin in PBS, 300 μl/well for 2 hours at room temperature. Pooled human plasma (a mix of plasma samples from 20 patients that were skin test positive for commerical mite extract) was serially diluted with PBS-Tween 20 (PBS with 0.05% nonionic detergent Tween-20 Sigma, St. Louis, Mo.) and 100 μl/well a.backslash.was added and incubated overnight at 4° C. (plasma dilutions were tested in duplicate). The second antibody (biotinylated goat anti-Human IgE, 1:1000, Kirkegaard & Perry Laboratories Inc, Gaithersburg, Md.), was added at 100 μl/well for one hour at room temperature. This solution was removed and streptavidin-HRPO, 1:10000, (Southern Biotechnology Associates, Inc., Birmingham, Ala.) was then added at 100 μl/well for one hour at room temperature (all wells are washed three times with PBS-Tween between each incubation step). TMB Membrane Peroxidase Substrate system (Kirkegaard & Perry Laboratories) was freshly miced, and added at […]. The color was allowed to develop for 2-5 minutes. The reaction was stopped by the addition of […] of 1M phosphoric acid. Plates were read on a Microplate IL310 Autoreader (Biotech Instruments, Winooski, Vt.) with a 450 nm filter. The absorbance levels of duplicate wells were averaged. The order of coating antigens listed vertically in these figure legends corresponds in orDer from left to right to the coating antigens listed for each histogram.
The antigen preparation that was used as a positive control was a mixture of the four major biochemically purified mite allergens (term PMA for Purified Mite Allergen); Der f I, Der f II, Der p I and Der p II. The stock was generated at a concentration of 100 μgs of each protein per millimeter or 400 μgs total protein/ml. This preparation was used on each coated ELISA plate.

[1] = test system: PBMC from mite-allergic patient; experiment: primary T cell (PBMC) proliferation, mite-allergic patient, tritiated thymidine; type: cell-based, human; conditions: for CPM ± S.D.: medium 1071 ± 30
Method: Peripheral blood mononuclear cells (PBMC) were purified by Ficoll-Hypaque centrifugation of a peripheral blood specimen from mite-allergic patient and were assayed for proliferation in response to various antigens, i.e., affinity-purified Der p I, affinity purified Der p II, various Der p I and Der p II peptides. For assay, 5×10^4 PBMC were cultured in triplicate microwells for 7 days at 37° C. in the presence of various concentrations of antigen in 200 μl RPMI-1640 containing 5% human AB serum. Each well then received 1 μCi tritiated thymidine for 16 hours. The counts incorporated were collected onto glass fiber filters and processed for liquid scintillation counting. […] The CPM +/- standard deviation are shown. The stimulation index of each response (S.I.) is the ratio of the ^3 H-thymidine CPM incorporated by the cells in response to antigen divided by the ^3 H-thymidine CPM incorporated by cells in medium only. […] Thus, these peptides contain Der p I or Der p II T cell epitopes recognized by T cells from this particular allergic patient.

Row | Molecule | IgE binding (ELISA), modified peptides (human IgE) | IgE binding (ELISA) (human IgE) | S.I. ([1]; 10 μg/ml) | CPM ± S.D. ([1]; 10 μg/ml) | S.I. ([1]; 30 μg/ml) | CPM ± S.D. ([1]; 30 μg/ml) | S.I. ([1]; 100 μg/ml) | CPM ± S.D. ([1]; 100 μg/ml)
1 | Der p II: affinity purified native group II allergen of Dermatophagoides pteronyssinus (protein) MMYKILCLSLLVAAVARDQVDVKDCANHEIKKVLVPGCHGSEPCIIHRGKPFQLEAVFEANQNTKTAKIEIKASIDGLEVDVPGIDPNACHYMKCPLVKGQQYDIKYTWNVPKIAPKSENVVVTVKVMGDDGVLACAIATHAKIRD | All samples did contain IgE | good binding | 1.0 | 1113 ± 35 CPM | 2.0 | 2104 ± 43 CPM | 1.0 | 1057 ± 27 CPM
2 | biochemically purified Der f-- I: purified native group I allergen of Dermatophagoides farinae (protein) MKFVLAIASLLVLSTVYARPASIKTFEEFKKAFNKNYATVEEEEVARKNFLESLKYVEANKGAINHLSDLSLDEFKNRYLMSAEAFEQLKTQFDLNAETSACRINSVNVPSELDLRSLRTVTPIRMQGGCGSCWAFSGVAATESAYLAYRNTSLDLSEQELVDCASQHGCHGDTIPRGIEYIQQNGVVEERSYPYVAREQRCRRPNSQHYGISNYCQIYPPDVKQIREALTQTHTAIAVIIGIKDLRAFQHYDGRTIIQHDNGYQPNYHAVNIVGYGSTQGDDYWIVRNSWDTTWGDSGYGYFQAGNNLMMIEQYPYVVIM |  | binding |  |  |  |  |  | 
3 | biochemically purified Der f II: purified native group II allergen of Dermatophagoides farinae (protein) DQVDVKDCANNEIKKVMVDGCHGSDPCIIHRGKPFTLEALFDANQNTKTAKTEIKASLDGLEIDVPGIDTNACHFMKCPLVKGQQYDAKYTWNVPKIAPKSENVVVTVKLVGDNGVLACAIATHAKIRD |  | binding |  |  |  |  |  | 
4 | Der p I: affinity purified native group I allergen of Dermatophagoides pteronyssinus (protein) KNRFLMSAEAFEHLKTQFDLNAETNACSINGNAPAEIDLRQMRTVTPIRMQGGCGSCWAFSGVAATESAYLAHRNQSLDLAEQELVDCASQHGCHGDTIPRGIEYIQHNGVVQESYYRYVAREQSCRRPNAQRFGISNYCQIYPPNANKIREALAQTHSAIAVIIGIKDLDAFRHYDGRTIIQRDNGYQPNYHAVNIVGYSNAQGVDYWIVRNSWDTNWGDNGYGYFAANIDLMMIEEYPYVVIL | All samples did contain IgE |  | 0.9 | 920 ± 15 CPM | 2.0 | 2122 ± 93 CPM | 1.4 | 1492 ± 13 CPM
